Reference: patent US20180362665A1

Columns and labels:
[1] = molecular target: human ADAMTS13 (in normal human plasma) (human) (UniProt Q76LX8); test: cell-based or functional assay
[2] = molecular target: human ADAMTS13 (in normal human plasma) (human) (UniProt Q76LX8); test: sandwich ELISA, antibody coated 10 to 0.02 µg/mL, constant 15% NHP, detection with biotinylated 17G2 and 19H4

Sequence of human ADAMTS13 (in normal human plasma) (human) (Q76LX8 75-1427): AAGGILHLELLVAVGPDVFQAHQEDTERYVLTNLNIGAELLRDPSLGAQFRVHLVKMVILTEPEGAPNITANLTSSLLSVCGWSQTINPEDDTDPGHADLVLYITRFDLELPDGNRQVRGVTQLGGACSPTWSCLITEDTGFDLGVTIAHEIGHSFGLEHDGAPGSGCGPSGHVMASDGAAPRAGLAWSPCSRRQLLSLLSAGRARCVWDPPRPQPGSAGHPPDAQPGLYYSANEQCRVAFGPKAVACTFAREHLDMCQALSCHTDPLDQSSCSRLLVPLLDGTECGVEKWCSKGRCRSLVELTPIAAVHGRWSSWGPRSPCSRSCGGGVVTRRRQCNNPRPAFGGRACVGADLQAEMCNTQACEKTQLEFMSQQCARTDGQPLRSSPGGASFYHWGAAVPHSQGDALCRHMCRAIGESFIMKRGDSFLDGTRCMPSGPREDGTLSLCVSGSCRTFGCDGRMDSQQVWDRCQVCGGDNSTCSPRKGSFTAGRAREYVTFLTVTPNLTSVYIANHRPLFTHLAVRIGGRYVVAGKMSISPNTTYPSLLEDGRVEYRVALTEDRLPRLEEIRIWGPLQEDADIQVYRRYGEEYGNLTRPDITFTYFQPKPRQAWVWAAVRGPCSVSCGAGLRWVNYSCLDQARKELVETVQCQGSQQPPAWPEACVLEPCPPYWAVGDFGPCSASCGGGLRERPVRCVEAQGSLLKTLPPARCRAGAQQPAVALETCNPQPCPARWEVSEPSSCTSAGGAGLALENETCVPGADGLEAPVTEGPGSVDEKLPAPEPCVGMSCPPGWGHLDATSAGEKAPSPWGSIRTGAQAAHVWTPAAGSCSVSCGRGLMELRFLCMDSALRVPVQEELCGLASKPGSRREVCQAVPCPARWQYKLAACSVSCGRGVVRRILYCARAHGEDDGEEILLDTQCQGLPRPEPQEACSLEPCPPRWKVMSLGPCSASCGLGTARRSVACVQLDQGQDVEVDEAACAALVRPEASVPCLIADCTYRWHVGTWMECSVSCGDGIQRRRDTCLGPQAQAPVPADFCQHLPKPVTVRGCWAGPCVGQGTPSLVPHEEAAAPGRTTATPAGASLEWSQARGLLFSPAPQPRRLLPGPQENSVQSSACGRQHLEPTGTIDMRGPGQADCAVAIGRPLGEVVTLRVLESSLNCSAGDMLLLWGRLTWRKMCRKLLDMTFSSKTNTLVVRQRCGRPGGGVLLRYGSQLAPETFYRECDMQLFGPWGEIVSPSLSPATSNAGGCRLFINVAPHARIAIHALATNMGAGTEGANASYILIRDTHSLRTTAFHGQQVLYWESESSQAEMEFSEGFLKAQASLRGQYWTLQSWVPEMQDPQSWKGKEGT

half maximal inhibitory concentration (IC50) of ADAMTS13 activity in normal human plasma, FRETS-VWF73 assay [1]: 0.47 µg/mL
half maximal binding (Kd) [2]: 0.51 µg/mL
B1: anti-ADAMTS13 monoclonal antibody 17C7 (antibody, V domains shown)
VH: EVQLVESGGDLVKSGGSLKLSCAASGFIFSNYAMSWVRQTPEKRLEWGATITTGGFYTFYSDSVKGRFTISRDNAKNTLYLQMSSLRSEDTAMYYCARHRYDDYYALDYWGQGTSVTVSS
VL: ENVLTQSPAIMSTSPGEKVTMTCNVSSSVSYMRWFQQKSSTSPKLWIYDTSKLASGVPGRFSGSGSGHSYSLTISSMEADDVATYYCFQGNGYPLTFGAGTKLELK
